Experimental data as given in the supplement of paper PMC10567573.
± gives the standard deviation.

Experiment: protein stability index of a GFP-peptide fusion (GPS, HEK-293T) (PSI 1-6); higher = more stable
Details: c terminus: a fixed tail appended
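Note: 24-mer peptide tiles fused after GFP, lentivirally expressed, FACS-sorted into six equal bins by GFP/DsRed ratio, decoded by Illumina sequencing, PSI is the read-weighted mean bin number.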

Sequence | protein stability index (treatment: DMSO) | protein stability index (treatment: MLN4924 1 uM, 8 h)
RSKESKDCSGLVLLCLFFGIPWEA [PCDHGA10] | 3.15 ± 0.37 | 2.48 ± 0.61
RSRSLDIQPSSEGLGPTSEPFPSS [SPAG8] | 5.46 ± 0.23 | 5.52 ± 0.094
RSSEFYRVTTEQYQKAAEEVEAKF [CHCHD3] | 4.88 ± 0.32 | 4.78 ± 0.074
RTFGPPPSLSPGAFSYSSSSRFSS [PRPH] | 3.42 ± 0.21 | 3.8 ± 0.3
RTQEEKLEHVRALIKKYSDHLENV [TRIM55] | 3.24 ± 0.31 | 3.56 ± 0.27
RTVAIWDVAEGYRKLSLKGHNDWV [WDR88] | 2.46 ± 0.38 | 2.54 ± 0.44
RVEESALRALREKLFAHSSDLLSE [PPEF2] | 2.96 ± 0.49 | 3.27 ± 0.32
RVFRVTFLMLAVSLTVPLLGAMML [APMAP] | 2.2 ± 0.43 | 2.4 ± 0.55
RWLDESDAEMELRAKEEERLNKLR [HACD3] | 4.5 ± 0.3 | 4.84 ± 0.42
RWPFDHNDFGVFLCKLFPFLQKSS [EDNRA] | 2.2 ± 0.19 | 2.05 ± 0.38
RYAVVLNATWLVNSAAHLFGYRPY [SCD] | 2.9 ± 0.65 | 3.05 ± 0.47
SADRLTVRCGLLGSLGPVPVLRFD [TRIM14] | 2.12 ± 0.31 | 2.25 ± 0.31
SAETSGGLLICLPREQAARFCSEI [SEPHS2] | 2.31 ± 0.27 | 2.18 ± 0.26
SAKDGGPQPPDAPQLVSSAREGSS [PLEKHN1] | 5.49 ± 0.19 | 5.39 ± 0.17
SAKPASLRLLQHTPSARRNYRIAG [C6orf223] | 3.43 ± 0.24 | 3.75 ± 0.22
SCNTWPSMPSYSSCTVTTVQPMDR [TBX5] | 3.11 ± 0.14 | 3.09 ± 0.19
SCPFFETSAAYRYYIDDVFHALVR [RIT1] | 2.41 ± 0.36 | 2.54 ± 0.38
SCQSFISWTGDGWEFKLSDPDEVA [ETS1] | 3.12 ± 0.13 | 3.06 ± 0.31
SDCCRKLLSSGFEIDTPDKFGRTC [ANKRD44] | 2.8 ± 0.27 | 2.97 ± 0.33
SDHCITSSDMMDSSSFSNLDLSEE [VDR] | 5.48 ± 0.13 | 5.42 ± 0.16
SDLNVVASFDRRGEYIYTGNAKGK [RBBP5] | 4.32 ± 0.6 | 4.4 ± 0.26
SDSMTDVPVDTGVAARTPAVEGLT [TPD52L2] | 5.3 ± 0.29 | 5.26 ± 0.15
SDYESIEVPDSYTGPRLSFPLLPD [PPEF2] | 4.13 ± 0.19 | 4.09 ± 0.15

Sequence | protein stability index (treatment: DMSO) | protein stability index (treatment: MLN4924 1 uM, 8 h)
SEEAAVLQYASLVGQKCSERMLLF [ATE1] | 2.37 ± 0.4 | 2.19 ± 0.34
SEEMVKMVLSRPCHPDDQFTTSIL [INTS3] | 2.94 ± 0.34 | 2.98 ± 0.39
SEKTDESDTIPYLKKFLYNFDNPW [MIA2] | 2.78 ± 0.14 | 2.11 ± 0.039
SESPGSLSEVLAQPQGALAPPNCE [DNAAF3] | 5.44 ± 0.1 | 5.17 ± 0.17
SFVYGAVPIGASIYVIGDLDTGTN [GAN] | 2.35 ± 0.32 | 2.29 ± 0.61
SGEKYDPDANTWTALPPMNEARHN [GAN] | 4.61 ± 0.55 | 4.8 ± 0.13
SGGGGGGGGGGGGGKSGGIVISPF [CCDC6] | 3.53 ± 0.41 | 3.37 ± 0.23
SGHGDAHLQEYAGNFQGIRFHYDR [FATE1] | 3.32 ± 0.17 | 3.33 ± 0.1
SGLGSCLPGSYLSSECHTSGFVGS [KRT36] | 2.62 ± 0.32 | 2.69 ± 0.23
SHLCSCLAMLALLSPLSLAQYDSW [LOXL2] | 3.02 ± 0.29 | 2.96 ± 1.2
SIERSHRIATETDQIGSEIIEELG [VTI1B] | 4.88 ± 0.33 | 5 ± 0.2
SILLCLLASGLVVFFLFPHSVLVD [TMEM106C] | 3 ± 0.49 | 2.56 ± 0.044
SINVMKQLIGSSNLFVMQVEMDIY [GMCL1] | 2.98 ± 0.49 | 2.82 ± 0.73
SIPLERIHFDSYITCVSGAIVDLI [FBXO33] | 2.44 ± 0.42 | 2.26 ± 0.42
SIQWPGKRSSRRVQRHNSFSPNSP [NECAB1] | 3.54 ± 0.27 | 3.62 ± 0.23
SIYGIPHSTLEYKVKERLGTLKNP [LCOR] | 3.12 ± 0.31 | 3.2 ± 0.52
SKAGPTRIFTSNTHSSVVLQGFDQ [KLHL13] | 3.53 ± 0.32 | 3.32 ± 0.12
SLENTLTESEAHYSSQLSQVQSLI [KRT34] | 3.32 ± 0.093 | 3.42 ± 0.31
SLMDLAIEEGFNPVQASQLEEEFD [NFE2L1] | 5.35 ± 0.35 | 5.49 ± 0.12
SLQFDEKCLSIMLAEWEANPLICP [RPAIN] | 2.33 ± 0.24 | 2.29 ± 0.18
SLRKGASLSNGQGSRVLHVVQTLY [NCK2] | 2.29 ± 0.26 | 2.57 ± 0.11
SLRKSNTLCDVTLRVEQKDFPAHR [KLHL12] | 3.58 ± 0.3 | 3.91 ± 0.38
SMAMEYFDEKIVPILKRKLPGSDV [FBXO28] | 3 ± 0.22 | 3.25 ± 0.073

Sequence | protein stability index (treatment: DMSO) | protein stability index (treatment: MLN4924 1 uM, 8 h)
SMEVFTHYDLLNLNGTKVAEGHKA [LOXL2] | 4.39 ± 0.16 | 3.85 ± 0.42
SMLSKNPEDRPSLDDIIRHDFFLQ [PLK2] | 3 ± 0.21 | 3.19 ± 0.32
SNGFPERDPPRPGPSRPAEKPPRP [GCH1] | 5 ± 0.1 | 4.99 ± 0.082
SNPNGNGGFMGYSAENIPGCSSSG [CRY1] | 4.57 ± 0.24 | 4.34 ± 0.35
SNSEKAKNIFRIRFHDPSPAQSHT [NET1] | 3.13 ± 0.2 | 3.06 ± 0.37
SPVVAMTSRRSGVGLAVVNGQLMA [KLHL20] | 2.88 ± 0.36 | 2.95 ± 0.43
SQITDSEHNSSLVSQQTGSPGKQP [ZNF8] | 5.33 ± 0.16 | 5.26 ± 0.23
SQLSVLSLSGVMLTDVSPEPLQAL [PRAME] | 2.36 ± 0.37 | 2.4 ± 0.3
SRIYGQAMAIINGSLYVFGGTTGY [KLHDC10] | 2.92 ± 0.3 | 2.87 ± 0.6
SRRREQSSSRNSHLVQHQHPNSRK [ZNF8] | 5.14 ± 0.46 | 5.41 ± 0.075
SSGHQNRRFSSEDLEDPLGGLLSY [FBF1] | 3.6 ± 0.48 | 3.89 ± 0.36
SSGLQDVTGPDNGVRESETEQGFG [NFE2L1] | 5.6 ± 0.17 | 5.39 ± 0.35
SSIGRLFGKKEKGRLIQLSRDGAT [PPFIA4] | 3.19 ± 0.48 | 3.38 ± 0.54
SSLEFTELLTLVNRKVSQRRVDFC [CASP6] | 2.37 ± 0.43 | 2.32 ± 0.087
SSPVDLVTATDQKVEKMLISSIKE [IMPA1] | 4.38 ± 0.15 | 4.28 ± 0.1
SSSSGPGHGEPDVLKDELQLYGDA [TMEM40] | 5.3 ± 0.15 | 5.32 ± 0.19
SSSVSISHSASATGNVCIEEIDVD [LMNB1] | 5.38 ± 0.15 | 5.4 ± 0.21
SSTGNTALTYACAGGYVDVVKVLL [ANKRD17] | 2.07 ± 0.55 | 2.23 ± 0.3
SSWDIDGRATKRRKKSGDLKKAKV [FBXO34] | 4.8 ± 0.29 | 4.79 ± 0.11
STGTSRWPSAKSAGWTLATLGEQG [SCNN1D] | 3.17 ± 0.16 | 3.16 ± 0.31
STMRRMALRPTAFSGCLNCSKVSE [EMID1] | 2.5 ± 0.21 | 3.13 ± 0.62
STSLSFLDSCNSLTPKSTPVKTLP [MYBL2] | 3.9 ± 0.13 | 3.97 ± 0.36
SVKIPVRNHGILMETHKELKPLLS [LYSMD4] | 2.86 ± 0.13 | 3.17 ± 0.36

Sequence | protein stability index (treatment: DMSO) | protein stability index (treatment: MLN4924 1 uM, 8 h)
SVLMGHGVCMGLVAAACACGFTVA [OR10K2] | 2.9 ± 0.45 | 3.08 ± 0.41
SVPPVAGAPSVGQPGAGFGMPPAG [SNAP91] | 4.38 ± 0.24 | 4.38 ± 0.058
SWEKVTGHNSPLYKRQEESGAAAS [CHIT1] | 4.77 ± 0.37 | 4.51 ± 0.32
SWVSELLWSLFVPFTVYQVRWLRP [AUP1] | 3.12 ± 0.27 | 2.81 ± 0.51
SYFKCVQKEVLPSMRKIVATWMLE [CCND1] | 2.91 ± 0.76 | 2.46 ± 0.37
SYLSLTSEDNTSFDRKKKSISLMY [SLA] | 2.94 ± 0.18 | 2.95 ± 0.25
SYSIQKVIGFAKMIPGFRDLTSED [VDR] | 2.52 ± 0.29 | 2.88 ± 0.12
SYSSCGDFHYCDREHVCRKDQRNP [RBMY1A1] | 4.06 ± 0.41 | 4.09 ± 0.1
SYTTTTTITAPPSRVLQNGGDKLE [SCD] | 4.85 ± 0.23 | 4.81 ± 0.29
SYVHILSAILQFPSTLGRCKAFST [OR10K2] | 3.38 ± 0.61 | 3.01 ± 0.63
TADEIPMEPGDIIGVAGNHWDGYS [FUT8] | 4.21 ± 0.32 | 4.16 ± 0.23
TAEAEELKPFFMKEVGSHFDDFVT [SOAT1] | 3.91 ± 0.25 | 3.94 ± 0.34
TAERKQEQKTGTEAEAADSGAVGA [MFSD9] | 5.56 ± 0.28 | 5.65 ± 0.23
TAVHGRFTRSQTLIQNGGEIDCVD [ANKRD44] | 4.34 ± 0.14 | 4.48 ± 0.19
TCTLLLLYSLAPTMGAVVLSSTLL [MFSD9] | 3.22 ± 0.52 | 3.17 ± 0.28
TDNGTFNLSRGQTPLTEGSEDLDG [RETREG3] | 5.25 ± 0.26 | 5.45 ± 0.25
TEFKELDGLREALANLRGLSEEER [CCDC89] | 5.05 ± 0.28 | 4.85 ± 0.28
TFESPADAKDAARDMNGKSLDGKA [RBMX] | 5.39 ± 0.3 | 5.55 ± 0.12
TFFEVSPLCNFNITESFTELARIV [RAB40B] | 2.24 ± 0.51 | 2.14 ± 0.16
TFTASFSGKVFPFFAVWKKGSCLT [TRIM15] | 2.46 ± 0.47 | 2.34 ± 0.42
